# Results: the nanobody polyreactivity screen of Harvey et al. (2022)
# Assay: yeast display, Sf9 membrane polyspecificity reagent, FACS + sequencing; frameworks hold sequencing errors
# Method in brief: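 Synthetic nanobody libraries on Saccharomyces cerevisiae BJ5465 were galactose-induced for 36–48 hours, stained 1 hour at 4 °C with 10% biotinylated, detergent-solubilized Sf9 membrane reagent and enriched on streptavidin microbeads. FACS then separated cells into low and high (top ~1%) gates by anti-HA (expression) and streptavidin (reagent binding) fluorescence. Genes were colony-PCR amplified, MiSeq 2 × 250 sequenced and CDR-length filtered. A clone's polyreactivity label is that of its gate of origin.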
row,Sequence,polyreactivity (PSR sort gate)
1,QVQLVESGGGLVQAGGSLRLSCAASGRTFGYNAMGWYRKAPGKEREFVAAISWSGGRTYYADSVKGRFTISRDNAKNTVYLQMNSLKPEDTAVYYCAAGFGDGPGNGYYTRYSWDDDYWGQGTQVTVSS,low polyreactivity
2,QVQLVESGGGLVQAGGSLRLSCAASGFTFLINAMGWYRQAPGKERELVAAIRSGGSTNYADSVKGRFTISRDNAKNSVYLQMNSLKPEDTAVYYCAARRYYPYKYRYGYWGQGTQVTVSS,high polyreactivity
3,QVQLVESGGGLVQAGRTLRLSCAASGRLFSHNAMGWYRQAPGKEREWVAAISGSGGSTYYADSVKGRFTISRDNAKNTVYLQMNSLKPEDTAVYYCAARFAVLVTRRFYYWGQGTQVTVSS,high polyreactivity
4,QVQLVESGGGLVQAGGSLRLSCAASGSTFGYNGMGWYRQAPGKERELVAAISGGARTYADSVKGRFTISRDNAKNTVYLQMNSLKPEDTAVYYCAADSPVSVTADDGYWGQGTEVTVSS,low polyreactivity
5,QVQLVESGGGLVQAGGSLRLSCAASGFIFGFYAMGWYRQAPGKERELVADITSSGGSTYYADSVKGRFTISRDNAKYSVYLQMNSLKPEDTAVYYCAADGWWHNFYPGTGLDYWGQGTQVTVSS,low polyreactivity
6,QVQLVESGGGLVQAGGSLRLSCAASGSISVWYVMGWYRPAPGTERELVAAITRSGGSTFYADSVKGRFTISRDNAKNTVYLQMNSLKPEDTAVYYCAADGGVAWGYGYWGQGTQVTVSS,low polyreactivity
7,QVQLVESGGGLVQAGGSLRLSCAASGLTFRWYALGWFRQATGKERELVAAISSGGRTYYADSVKGRFTISRDNANNTVYLQMNSRKPEDTAVYYCNKRTLDYGFGSYGREYWGQGTQVTVSS,high polyreactivity
8,QVQLVESGGGLVQAGGSLRLSCAASGRTFYHNAMGWYRQAPGKERELVASNRWSGGSTYADSVNGRFTISRDNAKNTVYLQMNSLKPEDTAVYYCARRYYRTGYWEPFIALNGYWGQGTKVTVSS,high polyreactivity
9,QVQLVESGGGLVQEGGSVRFSCAASGSISKPNARGWYRQAAGKERELVASITRGGIPNYADSVKGRVTISRDNAKNTVYLQMNSLKPEDTAVYDCAAFYAYSKYSYNIRFYYWGQGTQVTVAS,high polyreactivity
10,QVQLVESGGGLVQAGGSLSLSCAASGRIFTRYAMGWYRQAPGKERELVAAISYGGGGTYYADSVKGRFTISRDNAKNTVYLQMNSLKPEDTAVYYCATDDPLSQINEHGMDYWGQGTQVTVSS,low polyreactivity
11,QGQLEESGGGLVQAGGSLRLSCAASGSIFGENAMGWYRQAPGKDRELVAAISSAGSTKYADSVKGRFTISRDNAKNSVYFQMNSLKPEDTAVYYCAAGYYRTSYPYSYYYWGQGTQVTVSS,low polyreactivity
12,QVQLVESGGGLVQAGGSLRLSCAASGDTFTSYAMGWYRQAPGKERELVAAISRRGGSTYYADSVKGRFTISRDNAKNTVYLQMNSLKPEDTAVYYCAAKSYSYTEFDYWGQGTQVTVSS,high polyreactivity
13,QVQLVESGGGLVQAGGSLRLSCAASGFIFSVYTMGWYRQAPGKERELVASITWSGGDTYYADSVKGRFTISRDNAKNTVYLQMNSLKPEDTAVYYCNVDAGFHDSYHAWNLRYDYWGQGTQVTVSS,low polyreactivity
14,QVQLVESGGGLVQAGGSLRLSCAASGLIFYWYAMGWYRQAPGKERELVAAITWSGGITYYADSVKGRFTISRDNAKNTVYLQMNSLKPEDTAVYYCAADDDYGDVTYDYWGQGTQVTVSS,low polyreactivity
15,QDQLVESGGGLVQAGGSLRLSCAASGILDRYAMGWYRQAHGKERELFAAISYIAGSTYYADSVKGRFTISRDNAKNTVYLQLNSLKPEVTAVYYCAARGFGTVNGKLYGYWGQGTQVTVSS,high polyreactivity
16,QVQLVESGGGLVQAGGSLRLSCAASGSIFDDFAMGWYRQAPGKERELVAAISWSGGRTYYADSVKGRFTISRDNAKNTVYLHMNSLKPDDTAVYYCAATTGVRSRRYYYWGQGTQVTVSS,low polyreactivity

row,Sequence,polyreactivity (PSR sort gate)
1,QVQLVESGGGLVQAGGSLRLSCAASGRIFRQYAMGWYRQAPGKERELVAAITSGGSTNYADSVKGRFTISRDNAKNTVYLQMNSLKPEDTAVYYCNAAGGTRSGVQYDYWGQGTQVTVSS,low polyreactivity
2,QLQLVESGGGLVQAGGSLRLSCAASGFTFVSNAMGWYRQAPGKERELVAVISSGGSTTYADSVKGRFSISPDNAKNTVYLQMNSLKPEDTAGYYCATTNSQDSYEGGDYWGQGTQVTVSS,low polyreactivity
3,QVQLVESGGGLVQAGGSLRLSCAASGSTFVHYAMGWYRQAPGKERELVAAITISGGRTYYADSVKGRFTISRDNAKNTVYLQMNSLKPEDTAVYYCNADHYHRTWGYDYWGQGTQVTVSS,low polyreactivity
4,QVQLVESGVGVVQAGGSLRLSCAASGRIFYGYAMGWYRQAPGKERELVAAISRGGTRTFYADSVKGRFTISRDNAKNTVYVQMNSLKPEDTAVYYCAARKRDFYSGYEYYYWGQGTQVTVSS,high polyreactivity
5,QVHLVESGGGLVQAGGSLRLSCAATGSTFPFYTMGWYRQAPGKERELVASISVKGDTTYYADSVKGRFTISRDNAKNTVYLQMNSLKPDDTAVYYCATGPYIWQEWSPGFEYWGQGTQVTVSS,low polyreactivity
6,QVQLVESGGGLVQAGGSLRLSCAASGSIFGYYAMGWYRQAPGKERELVAAISSGGNTNYADSVKGRFTISRDNAKNTVYLQMNSLKPEDTAVYYCATRARYKRIRYDYWGQGTQVTVSS,high polyreactivity
7,QVQLVESGGGLVQAGGSLRLSCAASGITFYEYTMGWYRQAPGKERELVAVIRKTGGSTYYADSVKGRFTISRDNAKNTVYLQMNSLKPEDTAVYYCAARKRYQRGYWGQGTLVTVSS,high polyreactivity
8,QVQLVESGAGLVQAGGSLRLSCAASGSIFFSYAMGWSRQAPGKERELVAGINWSGGSTYADSVKGRFTISRDNAKNTVYLQMNSLKPEDTAVYYCAAKYYSERSRYHYWGQGTQVTVSS,low polyreactivity
9,QVQLVETGGGLVQAGGSLRLSCAASGRTFGNYAMGWYRQAPGKERELVAAITSAGRTYYADSVKGRFTISRDNAKNTVYLQMNSLKPEDTAVYYCAVSVIYWSGSQVSVEYYYWGQGTQVTVSS,low polyreactivity
10,QVQLVESGGGLVQAGGSLRLSCAASGNIFKQYTMGWYRQAPGKERELVAAIRSRGGSTYYADSVKGRLTISRDNAKNTVYLQMNSLKPEDTAVYYCAKVLGRTTLRMDYWGQGPQVTVSS,high polyreactivity
11,QVQLVESGGGLVQAGGSLRLSCAASGSTFKRYSMGWYRQAPGKERELVASISGRGGGTYYADSVKGRFTISRDNEKNTVYLQMNSLIPEDTAVYYCAAYGRYYGFDYWGLGTQVTVSS,high polyreactivity
12,QVQLVESGGGLVQAGGSLRLSCAASGIMFTLYAMGWYRQAPGKERELVAAISGSGGSTYYAASVKGRFTISRDTAKKTVNLQMNSLKPEDTAVSYCRLAPRYRTGGYWGQGTQVTVSS,high polyreactivity
13,QVHLVESGGGLVQAGGSLLLSCDASGSIIKQYAMGWYRQAPGKERELVASIRWRDGSTYYADSVKGRFTISRDNAMNTVYLQMNSLKPEDTAVYYCAAYYCVWRYKYYYWGQGTQVTVSS,high polyreactivity
14,QVQLVESGGGLVQAGGRLRLSCAASGGIFIKNAMGWYRQAPGKERELVAGISSGGNTYYADSVKGRFTISRDNAKNTVYLQMNSLKPEDTAVYYCAVRYYRRFGPLYDSWGQGTHVTVSS,low polyreactivity
15,QVQLVESGGGLVQAGGSLRLSCAASGLIFLTYARGWYRQAPGKERELVATISGSTGGTYYADSVKGRFTISRDNAKNTVYLQMNSLKPEDTAVYYCNASVFQSEYDYWGQGTQVTVSS,low polyreactivity
